In paper PMC10690100 (Molecular Cancer Therapeutics, 2023):

B1: SGN-B6A (h2A2 conjugated to the vedotin drug-linker) (antibody, V domains shown)
VH: QFQLVQSGAEVKKPGASVKVSCKASGYSFTDYNVNWVRQAPGQGLEWIGVINPKYGTTRYNQKFKGRATLTVDKSTSTAYMELSSLRSEDTAVYYCTRGLNAWDYWGQGTLVTVSS
VL: DIQMTQSPSSLSASVGDRVTITCGASENIYGALNWYQQKPGKAPKLLIYGATNLEDGVPSRFSGSGSGRDYTFTISSLQPEDIATYYCQNVLTTPYTFGQGTKLEIK
B2: h2A2 (humanized 2A2 anti-integrin beta-6 antibody) (antibody, V domains shown)
VH: B1 VH
VL: B1 VL

Columns and labels:
[1] = biological target: recombinant human integrin alpha-v/beta-3 (Homo sapiens, UniProt P06756;P05106); test: ELISA
[2] = biological target: recombinant human integrin alpha-v/beta-6 (Homo sapiens, UniProt P06756;P18564); test: ELISA
[3] = biological target: recombinant human integrin alpha-v/beta-1 (Homo sapiens, UniProt P06756;P05556); test: ELISA
[4] = biological target: recombinant human integrin alpha-v/beta-8 (Homo sapiens, UniProt P06756;P26012); test: ELISA
[5] = biological target: recombinant human integrin alpha-v/beta-5 (Homo sapiens, UniProt P06756;P18084); test: ELISA
[6] = biological target: human integrin beta-6 on 293F:hu beta-6 transfected cells (Homo sapiens, UniProt P06756;P18564); test: flow cytometry on cells

Sequence of recombinant human integrin alpha-v/beta-3 (P06756 31-1048, chain 1 of 2): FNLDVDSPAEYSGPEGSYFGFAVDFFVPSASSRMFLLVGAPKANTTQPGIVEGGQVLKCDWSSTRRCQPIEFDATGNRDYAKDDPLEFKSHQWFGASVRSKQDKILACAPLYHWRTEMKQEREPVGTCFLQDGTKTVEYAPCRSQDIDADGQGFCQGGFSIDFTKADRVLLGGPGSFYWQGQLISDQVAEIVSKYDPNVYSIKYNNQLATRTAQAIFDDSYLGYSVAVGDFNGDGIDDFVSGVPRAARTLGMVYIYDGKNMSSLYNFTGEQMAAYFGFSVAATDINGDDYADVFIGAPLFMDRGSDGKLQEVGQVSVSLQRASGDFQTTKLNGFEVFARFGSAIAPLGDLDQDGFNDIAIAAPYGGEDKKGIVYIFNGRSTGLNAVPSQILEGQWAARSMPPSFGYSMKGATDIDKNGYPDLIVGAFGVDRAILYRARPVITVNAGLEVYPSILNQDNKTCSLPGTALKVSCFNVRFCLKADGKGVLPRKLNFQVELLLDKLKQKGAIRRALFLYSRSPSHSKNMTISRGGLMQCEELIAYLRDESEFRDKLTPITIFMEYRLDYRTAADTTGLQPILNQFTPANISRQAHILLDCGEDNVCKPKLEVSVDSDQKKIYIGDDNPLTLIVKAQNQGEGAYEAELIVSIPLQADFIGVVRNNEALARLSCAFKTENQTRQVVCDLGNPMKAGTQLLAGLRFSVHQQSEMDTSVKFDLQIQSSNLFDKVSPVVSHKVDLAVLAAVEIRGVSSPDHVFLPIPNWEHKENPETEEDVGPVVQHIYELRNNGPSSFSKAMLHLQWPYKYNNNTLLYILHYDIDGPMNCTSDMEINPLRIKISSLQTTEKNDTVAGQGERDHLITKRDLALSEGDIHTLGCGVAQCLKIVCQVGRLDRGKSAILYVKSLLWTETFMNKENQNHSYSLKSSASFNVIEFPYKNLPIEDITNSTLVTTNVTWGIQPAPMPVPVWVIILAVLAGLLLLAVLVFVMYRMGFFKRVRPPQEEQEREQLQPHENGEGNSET
Sequence of recombinant human integrin alpha-v/beta-3 (P05106 27-718, chain 2 of 2): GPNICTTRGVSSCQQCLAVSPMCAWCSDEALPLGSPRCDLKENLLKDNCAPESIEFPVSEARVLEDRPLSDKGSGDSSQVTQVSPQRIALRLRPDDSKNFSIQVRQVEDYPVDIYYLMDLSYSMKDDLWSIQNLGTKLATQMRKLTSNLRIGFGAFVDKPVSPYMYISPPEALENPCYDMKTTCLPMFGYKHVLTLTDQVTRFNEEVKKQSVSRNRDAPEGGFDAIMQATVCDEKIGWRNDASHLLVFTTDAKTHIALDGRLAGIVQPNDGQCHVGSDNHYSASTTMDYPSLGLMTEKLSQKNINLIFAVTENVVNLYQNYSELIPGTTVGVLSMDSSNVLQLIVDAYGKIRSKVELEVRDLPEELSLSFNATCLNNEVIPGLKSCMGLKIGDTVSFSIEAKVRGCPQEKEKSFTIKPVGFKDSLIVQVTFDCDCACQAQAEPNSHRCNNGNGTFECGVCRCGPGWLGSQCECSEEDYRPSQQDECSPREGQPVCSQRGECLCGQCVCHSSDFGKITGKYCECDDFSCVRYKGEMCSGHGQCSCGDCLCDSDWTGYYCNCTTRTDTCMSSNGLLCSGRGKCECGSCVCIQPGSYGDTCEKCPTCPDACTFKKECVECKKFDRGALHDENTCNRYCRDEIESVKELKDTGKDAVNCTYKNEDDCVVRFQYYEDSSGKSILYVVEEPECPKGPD
Sequence of recombinant human integrin alpha-v/beta-6 (P06756 31-1048, chain 1 of 2): as the sequence (P06756 31-1048, chain 1 of 2) above
Sequence of recombinant human integrin alpha-v/beta-6 (P18564 22-709, chain 2 of 2): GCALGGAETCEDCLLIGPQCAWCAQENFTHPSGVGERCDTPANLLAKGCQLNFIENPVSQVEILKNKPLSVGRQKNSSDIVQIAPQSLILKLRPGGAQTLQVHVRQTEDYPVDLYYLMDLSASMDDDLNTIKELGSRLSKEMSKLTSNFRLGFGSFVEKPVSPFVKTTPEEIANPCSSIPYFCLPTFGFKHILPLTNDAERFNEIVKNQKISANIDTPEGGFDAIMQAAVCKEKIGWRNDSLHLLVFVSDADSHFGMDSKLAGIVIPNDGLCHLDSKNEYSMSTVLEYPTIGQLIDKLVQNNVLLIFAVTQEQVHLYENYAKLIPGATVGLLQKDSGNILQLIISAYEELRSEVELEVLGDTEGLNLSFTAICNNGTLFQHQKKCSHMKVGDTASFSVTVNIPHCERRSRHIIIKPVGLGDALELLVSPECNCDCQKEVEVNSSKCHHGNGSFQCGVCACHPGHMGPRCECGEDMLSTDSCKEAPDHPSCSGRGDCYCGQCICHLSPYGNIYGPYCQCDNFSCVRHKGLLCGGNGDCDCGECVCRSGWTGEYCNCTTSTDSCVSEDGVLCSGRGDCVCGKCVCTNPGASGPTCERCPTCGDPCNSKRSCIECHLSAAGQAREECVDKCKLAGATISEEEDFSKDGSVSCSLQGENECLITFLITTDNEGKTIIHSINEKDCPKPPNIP
Sequence of recombinant human integrin alpha-v/beta-1 (P06756 31-1048, chain 1 of 2): as the sequence (P06756 31-1048, chain 1 of 2) above
Sequence of recombinant human integrin alpha-v/beta-1 (P05556 21-728, chain 2 of 2): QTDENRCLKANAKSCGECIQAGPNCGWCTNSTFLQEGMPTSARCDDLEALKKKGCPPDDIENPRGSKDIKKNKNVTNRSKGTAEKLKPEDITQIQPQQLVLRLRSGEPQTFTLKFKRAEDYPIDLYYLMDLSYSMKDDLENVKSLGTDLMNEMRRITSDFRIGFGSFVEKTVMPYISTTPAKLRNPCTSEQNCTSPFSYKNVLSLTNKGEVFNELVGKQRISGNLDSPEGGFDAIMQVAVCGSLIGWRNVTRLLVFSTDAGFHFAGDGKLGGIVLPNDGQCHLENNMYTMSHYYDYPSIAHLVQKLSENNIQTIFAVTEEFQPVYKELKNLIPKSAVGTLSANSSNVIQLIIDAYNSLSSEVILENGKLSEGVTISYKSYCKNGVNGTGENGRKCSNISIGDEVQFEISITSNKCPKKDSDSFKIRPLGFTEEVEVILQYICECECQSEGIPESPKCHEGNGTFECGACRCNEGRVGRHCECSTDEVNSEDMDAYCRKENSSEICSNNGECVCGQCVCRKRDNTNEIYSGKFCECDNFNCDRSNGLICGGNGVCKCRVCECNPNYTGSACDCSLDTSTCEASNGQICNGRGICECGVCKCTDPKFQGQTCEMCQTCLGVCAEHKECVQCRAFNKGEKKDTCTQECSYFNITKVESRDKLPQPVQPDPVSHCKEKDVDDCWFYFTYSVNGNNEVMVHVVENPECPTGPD
Sequence of recombinant human integrin alpha-v/beta-8 (P06756 31-1048, chain 1 of 2): as the sequence (P06756 31-1048, chain 1 of 2) above
Sequence of recombinant human integrin alpha-v/beta-8 (P26012 43-684, chain 2 of 2): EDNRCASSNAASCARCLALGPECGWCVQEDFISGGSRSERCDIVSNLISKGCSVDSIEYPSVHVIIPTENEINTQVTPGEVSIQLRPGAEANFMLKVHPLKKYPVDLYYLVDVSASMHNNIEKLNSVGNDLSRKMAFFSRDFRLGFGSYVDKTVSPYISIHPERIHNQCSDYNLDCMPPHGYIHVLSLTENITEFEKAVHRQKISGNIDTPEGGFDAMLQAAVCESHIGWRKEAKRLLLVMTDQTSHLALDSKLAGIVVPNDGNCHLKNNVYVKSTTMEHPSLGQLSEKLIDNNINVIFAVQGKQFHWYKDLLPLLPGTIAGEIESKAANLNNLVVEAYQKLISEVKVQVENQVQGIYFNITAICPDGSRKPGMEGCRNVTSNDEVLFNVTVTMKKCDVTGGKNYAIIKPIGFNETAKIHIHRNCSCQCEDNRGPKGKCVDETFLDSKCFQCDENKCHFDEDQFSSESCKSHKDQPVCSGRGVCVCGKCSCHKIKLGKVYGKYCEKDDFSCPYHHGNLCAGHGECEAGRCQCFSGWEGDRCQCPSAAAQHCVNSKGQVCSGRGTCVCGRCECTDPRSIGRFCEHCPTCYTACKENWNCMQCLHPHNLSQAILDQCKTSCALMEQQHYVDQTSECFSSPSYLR
Sequence of recombinant human integrin alpha-v/beta-5 (P06756 31-1048, chain 1 of 2): as the sequence (P06756 31-1048, chain 1 of 2) above
Sequence of recombinant human integrin alpha-v/beta-5 (P18084 24-719, chain 2 of 2): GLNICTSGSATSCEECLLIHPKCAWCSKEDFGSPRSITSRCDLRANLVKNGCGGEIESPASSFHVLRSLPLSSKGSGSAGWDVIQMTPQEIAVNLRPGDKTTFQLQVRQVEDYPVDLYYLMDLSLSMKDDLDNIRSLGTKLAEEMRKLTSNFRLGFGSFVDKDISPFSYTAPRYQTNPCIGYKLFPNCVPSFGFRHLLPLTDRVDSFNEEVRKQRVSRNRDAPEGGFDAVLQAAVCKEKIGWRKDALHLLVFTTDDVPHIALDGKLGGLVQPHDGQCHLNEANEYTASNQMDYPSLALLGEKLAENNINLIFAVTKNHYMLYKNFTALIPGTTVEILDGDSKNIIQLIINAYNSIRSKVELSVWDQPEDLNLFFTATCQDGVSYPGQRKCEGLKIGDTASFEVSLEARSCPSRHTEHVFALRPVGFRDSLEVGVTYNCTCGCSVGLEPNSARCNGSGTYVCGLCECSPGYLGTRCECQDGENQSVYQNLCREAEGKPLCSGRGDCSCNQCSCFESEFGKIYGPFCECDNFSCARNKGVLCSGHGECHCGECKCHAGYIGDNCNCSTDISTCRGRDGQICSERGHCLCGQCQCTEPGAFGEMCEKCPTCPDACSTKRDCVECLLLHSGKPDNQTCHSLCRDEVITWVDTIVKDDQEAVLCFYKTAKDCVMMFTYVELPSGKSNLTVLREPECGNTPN

| Binder | binding result [1] | EC50 [2] [nM] | binding result [3] | binding result [4] | binding result [5] | EC50 [6] [nM] |
| --- | --- | --- | --- | --- | --- | --- |
| B1 | no binding | 0.9 | no binding | no binding | no binding | – |
| B2 | no binding | 0.7 | no binding | no binding | no binding | 0.3 |
